US20250262210A1 (TRUSTEES OF COLUMBIA UNIVERSITY IN THE CITY OF NEW YORK, published 2025)

T1: LZTR1 R810W-FLAG (human, UniProt Q8N653 1-840)
T1 construct: Stably expressed in U87 cells by lentivirus; also called LZTR1-FLAG-R810W; LZTR1 RW; not shown: FLAG tag
T1 sequence (looked up): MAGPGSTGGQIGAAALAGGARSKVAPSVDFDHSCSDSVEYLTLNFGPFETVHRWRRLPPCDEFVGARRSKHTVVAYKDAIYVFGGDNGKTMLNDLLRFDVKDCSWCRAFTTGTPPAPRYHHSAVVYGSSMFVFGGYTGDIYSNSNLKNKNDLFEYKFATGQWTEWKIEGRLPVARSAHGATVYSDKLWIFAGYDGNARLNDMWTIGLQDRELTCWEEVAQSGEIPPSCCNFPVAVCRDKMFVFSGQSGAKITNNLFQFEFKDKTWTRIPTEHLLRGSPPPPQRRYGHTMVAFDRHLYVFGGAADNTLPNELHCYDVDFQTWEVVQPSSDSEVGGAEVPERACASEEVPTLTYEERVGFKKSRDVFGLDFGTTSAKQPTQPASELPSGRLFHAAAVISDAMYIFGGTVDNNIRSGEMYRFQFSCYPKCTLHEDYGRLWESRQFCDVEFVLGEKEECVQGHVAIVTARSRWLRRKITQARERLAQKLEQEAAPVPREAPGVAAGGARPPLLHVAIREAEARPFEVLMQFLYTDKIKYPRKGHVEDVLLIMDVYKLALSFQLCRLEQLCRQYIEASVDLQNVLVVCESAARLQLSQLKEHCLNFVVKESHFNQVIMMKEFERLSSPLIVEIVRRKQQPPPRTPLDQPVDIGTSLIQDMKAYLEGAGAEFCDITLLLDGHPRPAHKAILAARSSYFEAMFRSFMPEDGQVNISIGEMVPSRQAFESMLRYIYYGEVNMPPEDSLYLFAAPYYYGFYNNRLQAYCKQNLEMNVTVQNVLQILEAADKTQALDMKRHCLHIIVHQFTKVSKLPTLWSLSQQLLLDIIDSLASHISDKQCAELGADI

T2: LZTR1-FLAG (human, UniProt Q8N653 1-840)
T2 construct: Expressed in HEK 293T, HeLa or U87 cells; used as cell lysate; also called LZTR1 wild type-FLAG; LZTR1 WT; not shown: FLAG tag at the C-terminus
T2 sequence (looked up): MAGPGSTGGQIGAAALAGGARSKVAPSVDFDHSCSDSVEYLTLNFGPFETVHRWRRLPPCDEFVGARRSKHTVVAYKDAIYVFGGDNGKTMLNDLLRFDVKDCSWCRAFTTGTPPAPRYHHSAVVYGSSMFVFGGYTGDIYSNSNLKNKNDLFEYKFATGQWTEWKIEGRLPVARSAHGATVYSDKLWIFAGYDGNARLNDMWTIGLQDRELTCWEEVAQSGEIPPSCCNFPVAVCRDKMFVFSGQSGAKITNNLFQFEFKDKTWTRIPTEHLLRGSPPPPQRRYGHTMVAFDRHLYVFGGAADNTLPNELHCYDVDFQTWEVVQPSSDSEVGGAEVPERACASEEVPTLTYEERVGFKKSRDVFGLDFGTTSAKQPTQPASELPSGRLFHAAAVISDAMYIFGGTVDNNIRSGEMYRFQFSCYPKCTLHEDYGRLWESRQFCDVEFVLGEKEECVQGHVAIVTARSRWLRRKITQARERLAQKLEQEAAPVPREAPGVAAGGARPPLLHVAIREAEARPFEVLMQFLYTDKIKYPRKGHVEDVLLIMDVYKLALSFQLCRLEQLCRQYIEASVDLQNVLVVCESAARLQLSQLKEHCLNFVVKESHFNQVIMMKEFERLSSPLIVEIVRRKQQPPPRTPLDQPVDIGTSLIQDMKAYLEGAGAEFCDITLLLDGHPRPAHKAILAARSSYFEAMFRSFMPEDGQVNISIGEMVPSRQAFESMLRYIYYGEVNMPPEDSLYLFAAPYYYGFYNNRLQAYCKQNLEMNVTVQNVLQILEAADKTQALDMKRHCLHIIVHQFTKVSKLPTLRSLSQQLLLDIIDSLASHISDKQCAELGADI


How the values were obtained:
LZTR1 R810W-FLAG = target: T1, LZTR1 R810W-FLAG; assay: IP/MS, LZTR1 R810W-FLAG, U87
Outline: (§1)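 Read-out: spectral counts from LC-MS/MS (Orbitrap Fusion) after MaxQuant identification. Variable modifications were Met oxidation, protein N-terminal acetylation and N/Q deamidation.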

LZTR1-FLAG = target: T2, LZTR1-FLAG; assay: IP/MS, LZTR1 wild type-FLAG, U87
Outline: as §1

| Binder | binding result (LZTR1 R810W-FLAG) | binding result (LZTR1-FLAG) |
| --- | --- | --- |
| CARS (other, human, UniProt P49589 2-748, looked up) ADSSGQQGKGRRVQPQWSPPAGTQPCRLHLYNSLTRNKEVFIPQDGKKVTWYCCGPTVYDASHMGHARSYISFDILRRVLKDYFKFDVFYCMNITDIDDKIIKRARQNHLFEQYREKRPEAAQLLEDVQAALKPFSVKLNETTDPDKKQMLERIQHAVQLATEPLEKAVQSRLTGEEVNSCVEVLLEEAKDLLSDWLDSTLGCDVTDNSIFSKLPKFWEGDFHRDMEALNVLPPDVLTRVSEYVPEIVNFVQKIVDNGYGYVSNGSVYFDTAKFASSEKHSYGKLVPEAVGDQKALQEGEGDLSISADRLSEKRSPNDFALWKASKPGEPSWPCPWGKGRPGWHIECSAMAGTLLGASMDIHGGGFDLRFPHHDNELAQSEAYFENDCWVRYFLHTGHLTIAGCKMSKSLKNFITIKDALKKHSARQLRLAFLMHSWKDTLDYSSNTMESALQYEKFLNEFFLNVKDILRAPVDITGQFEKWGEEEAELNKNFYDKKTAIHKALCDNVDTRTVMEEMRALVSQCNLYMAARKAVRKRPNQALLENIALYLTHMLKIFGAVEEDSSLGFPVGGPGTSLSLEATVMPYLQVLSEFREGVRKIAREQKVPEILQLSDALRDNILPELGVRFEDHEGLPTVVKLVDRNTLLKEREEKRRVEEEKRKKKEEAARRKQEQEAAKLAKMKIPPSEMFLSETDKYSKFDENGLPTHDMEGKELSKGQAKKLKKLFEAQEKLYKEYLQMAQNGSFQ | binds | binds |
| CCNB2 (other, human, UniProt O95067 1-398, looked up) MALLRRPTVSSDLENIDTGVNSKVKSHVTIRRTVLEEIGNRVTTRAAQVAKKAQNTKVPVQPTKTTNVNKQLKPTASVKPVQMEKLAPKGPSPTPEDVSMKEENLCQAFSDALLCKIEDIDNEDWENPQLCSDYVKDIYQYLRQLEVLQSINPHFLDGRDINGRMRAILVDWLVQVHSKFRLLQETLYMCVGIMDRFLQVQPVSRKKLQLVGITALLLASKYEEMFSPNIEDFVYITDNAYTSSQIREMETLILKELKFELGRPLPLHFLRRASKAGEVDVEQHTLAKYLMELTLIDYDMVHYHPSKVAAAASCLSQKVLGQGKWNLKQQYYTGYTENEVLEVMQHMAKNVVKVNENLTKFIAIKNKYASSKLLKISMIPQLNSKAVKDLASPLIGRS | binds | binds |

Further lines, results first:

| binding result (LZTR1 R810W-FLAG) | binding result (LZTR1-FLAG) | Binder |
| --- | --- | --- |
| binds | binds | CREB3L2 (other, human, UniProt Q70SY1 1-520, looked up) MEVLESGEQGVLQWDRKLSELSEPGDGEALMYHTHFSELLDEFSQNVLGQLLNDPFLSEKSVSMEVEPSPTSPAPLIQAEHSYSLCEEPRAQSPFTHITTSDSFNDDEVESEKWYLSTDFPSTSIKTEPVTDEPPPGLVPSVTLTITAISTPLEKEEPPLEMNTGVDSSCQTIIPKIKLEPHEVDQFLNFSPKEAPVDHLHLPPTPPSSHGSDSEGSLSPNPRLHPFSLPQTHSPSRAAPRAPSALSSSPLLTAPHKLQGSGPLVLTEEEKRTLIAEGYPIPTKLPLSKSEEKALKKIRRKIKNKISAQESRRKKKEYMDSLEKKVESCSTENLELRKKVEVLENTNRTLLQQLQKLQTLVMGKVSRTCKLAGTQTGTCLMVVVLCFAVAFGSFFQGYGPYPSATKMALPSQHSLQEPYTASVVRSRNLLIYEEHSPPEESSSPGSAGELGGWDRGSSLLRVSGLESRPDVDLPHFIISNETSLEKSVLLELQQHLVSAKLEGNETLKVVELDRRVNTTF |
| binds | binds | CELF1 (other, human, UniProt Q92879 1-486, looked up) MNGTLDHPDQPDLDAIKMFVGQVPRTWSEKDLRELFEQYGAVYEINVLRDRSQNPPQSKGCCFVTFYTRKAALEAQNALHNMKVLPGMHHPIQMKPADSEKNNAVEDRKLFIGMISKKCTENDIRVMFSSFGQIEECRILRGPDGLSRGCAFVTFTTRAMAQTAIKAMHQAQTMEGCSSPMVVKFADTQKDKEQKRMAQQLQQQMQQISAASVWGNLAGLNTLGPQYLALYLQLLQQTASSGNLNTLSSLHPMGGLNAMQLQNLAALAAAASAAQNTPSGTNALTTSSSPLSVLTSSGSSPSSSSSNSVNPIASLGALQTLAGATAGLNVGSLAGMAALNGGLGSSGLSNGTGSTMEALTQAYSGIQQYAAAALPTLYNQNLLTQQSIGAAGSQKEGPEGANLFIYHLPQEFGDQDLLQMFMPFGNVVSAKVFIDKQTNLSKCFGFVSYDNPVSAQAAIQSMNGFQIGMKRLKVQLKRSKNDSKPY |
